T1: FX zymogen (UniProt P00742 41-179; P00742 183-488)
T1 chain 1: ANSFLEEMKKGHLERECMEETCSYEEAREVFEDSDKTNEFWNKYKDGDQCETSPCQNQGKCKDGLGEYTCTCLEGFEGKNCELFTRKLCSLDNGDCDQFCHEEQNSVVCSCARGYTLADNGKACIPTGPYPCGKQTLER
T1 chain 2: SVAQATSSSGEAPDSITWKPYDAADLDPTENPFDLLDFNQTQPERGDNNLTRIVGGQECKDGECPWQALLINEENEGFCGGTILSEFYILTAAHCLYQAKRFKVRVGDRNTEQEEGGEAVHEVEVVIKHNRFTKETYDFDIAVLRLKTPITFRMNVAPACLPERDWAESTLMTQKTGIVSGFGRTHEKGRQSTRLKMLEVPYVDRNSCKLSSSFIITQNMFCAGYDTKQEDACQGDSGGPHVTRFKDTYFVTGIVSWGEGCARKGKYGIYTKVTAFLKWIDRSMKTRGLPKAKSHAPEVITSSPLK


Biological target: T1, FX zymogen
Assay: BLI

Row | Kd | Binder
1 | 16.1 nM | BIIB-12-1290 (antibody, V domains shown) VH: QVQLVQSGAEVKKPGASVKVSCKASGYTFTSYYMHWVRQAPGQGLEWMGIINPGGGSTSYAQKFQGRVTMTRDTSTSTVYMELSSLRSEDTAVYYCAREGGRYVRGMDVWGQGTTVTVSS VL: DIQMTQSPSSVSASVGDRVTITCRASQGISSWLAWYQQKPGKAPKLLIYAASSLQSGVPSRFSGSGSGTDFTLTISSLQPEDFATYYCQQGFSFPFTFGGGTKVEIK
2 | 52.2 nM | BIIB-12-893 (antibody, V domains shown) VH: QVQLVQSGAEVKKPGASVKVSCKASGYTFTSYYMVWVRQAPGQGLEWMGIINPSGGSTSYAQKFQGRVTMTRDTSTSTVYMELSSLRSEDTAVYYCARDPGRRQYSFYGMDVWGQGTTVTVSS VL: DIQLTQSPSSVSASVGDRVTITCRASQGISSWLAWYQQKPGKAPKLLIYAASSLQSGVPSRFSGSGSGTDFTLTISSLQPEDFATYYCQQAAAFPFTFGGGTKVEIK
3 | 63.4 nM | BIIB-12-896 (antibody, V domains shown) VH: QVQLVQSGAEVKKPGASVKVSCKASGYTFTSYYMHWVRQAPGQGLEWMGIINPSGGSTSYAQKFQGRVTMTRDTSTSTVYMELSSLRSEDTAVYYCARGLGQQRRGFDIWGQGTLVTVSS VL: DIQMTQSPSSVSASVGDRVTITCRASQGISSWLAWYQQKPGKAPKLLIYAASSLQSGVPSRFSGSGSGTDFTLTISSLQPEDFATYYCQQANSFPFTFGGGTKVEIK
4 | 38.6 nM | BIIB-12-1323 (antibody, V domains shown) VH: QVQLVQSGAEVKKPGASVKVSCKASGYTFTSYYIHWVRQAPGQGLEWMGIINPSGGSTSYAQKFQGRVTMTRDTSTSTVYMELSSLRSEDTAVYYCARGRRFPRGLDYWGQGTLVTVSS VL: DIQMTQSPSSVSASVGDRVTITCRASQGISSWLAWYQQKPGKAPKLLIYAASSLQSGVPSRFSGSGSGTDFTLTISSLQPEDFATYYCQQANIFPFTFGGGTKVEIK
5 | 26.3 nM | BIIB-12-895 (antibody, V domains shown) VH: QVQLVQSGAEVKKPGASVKVSCKASGYTFTSYYMHWVRQAPGQGLEWMGIINPSGGSTSYAQKFQGRVTMTRDTSTSTVYMELSSLRSEDTAVYYCARGGGYKSRGIDYWGQGTLVTVSS VL: DIQMTQSPSSVSASVGDRVTITCRASQGISSWLAWYQQKPGKAPKLLIYAASSLQSGVPSRFSGSGSGTDFTLTISSLQPEDFATYYCQQASSFPFTFGGGTKVEI
6 | 14.7 nM | BIIB-12-1312 (antibody, V domains shown) VH: QVQLVESGGGVVQPGRSLRLSCAASGFTFSSYGMHWVRQAPGKGLEWVAVISYDGSNKYYADSVKGRFTISRDNSKNTLYLQMNSLRAEDTAVYYCAKGMGHWIDYWGQGTLVTVSS VL: DIQMTQSPSSVSASVGDRVTITCRASQGISSWLAWYQQKPGKAPKLLIYAASSLQSGVPSRFSGSGSGTDFTLTISSLQPEDFATYYCQQASSFPPTFGGGTKVEIK
7 | 19.8 nM | BIIB-12-1307 (antibody, V domains shown) VH: QVQLQESGPGLVKPSETLSLTCAVSGYSISSGYYWAWIRQPPGKGLEWIGSIYHSGSTYYNPSLKSRVTISVDTSKNQFSLKLSSVTAADTAVYYCARGPLPRSRGLAFDIWGQGTMVTVSS VL: DIQLTQSPSSLSASVGDRVTITCRASQSISSFLNWYQQKPGKAPKLLIYAASSLQSGVPSRFSGSGSGTDFTLTISSLQPEDFATYYCQQTYSTPLTFGGGTKVEIK
8 | 49.9 nM | BIIB-12-1309 (antibody, V domains shown) VH: QVQLVESGGGVVQPGRSLRLSCAASGFTFSSYGMHWVRQAPGKGLEWVAVISYDGSNKYYADSVKGRFTISRDNSKNTLYLQMNSLRAEDTAVYYCARGRYTSRYFQHWGQGTLVTVSS VL: DIQMTQSPSSVSASVGDRVTITCRASQGISSWLAWYQQKPGKAPKLLIYAASSLQSGVPSRFSGSGSGTDFTLTISSLQPEDFATYYCQQANSLPITFGGGTKVEIK
9 | 48.4 nM | BIIB-12-905 (antibody, V domains shown) VH: QVQLVESGGGVVQPGRSLRLSCAASGFTFSSYGMHWVRQAPGKGLEWVAVISYDGSNKYYADSVKGRFTISRDNSKNTLYLQMNSLRAEDTAVYYCAKGGTYLDTWGQGTLVTVSS VL: EIVLTQSPGTLSLSPGERATLSCRASQSVRSSYLAWYQQKPGQAPRLLIYGASSRATGIPDRFSGSGSGTDFTLTISRLEPEDFAVYYCQQYGRFPPTFGGGTKVEIK
10 | 16 nM | BIIB-12-1333 (antibody, V domains shown) VH: QVQLVQSGAEVKKPGASVKVSCKASGYTFTSYYMVWVRQAPGQGLEWMGIINPSGGSTSYAQKFQGRVTMTRDTSTSTVYMELSSLRSEDTAVYYCARVSRRDYPLAFDIWGQGTMVTVSS VL: EIVMTQSPATLSVSPGERATLSCRASQSVSSNLAWYQQKPGQAPRLLIYGASTRATGIPARFSGSGSGTEFTLTISSLQSEDFAVYYCQQVNTWPTFGGGTKVEIK
11 | 48 nM | BIIB-12-1289 (antibody, V domains shown) VH: QVQLVQSGAEVKKPGASVKVSCKASGYTFTSYYMHWVRQAPGQGLEWMGIINPGGGSTSYAQKFQGRVTMTRDTSTSTVYMELSSLRSEDTAVYYCARGPPRTYATGSHNWFDPWGQGTLVTVSS VL: not shown
12 | 38.8 nM | BIIB-12-1305 (antibody, V domains shown) VH: QVQLVESGGGVVQPGRSLRLSCAASGFTFSSYGMHWVRQAPGKGLEWVAVISYDGSNKYYADSVKGRFTISRDNSKNTLYLQMNSLRAEDTAVYYCAKLGGRWSSDFQHWGQGTLVTVSS VL: EIVLTQSPATLSLSPGERATLSCRASQSVSSYLAWYQQKPGQAPRLLIYDASNRATGIPARFSGSGSGTDFTLTISSLEPEDFAVYYCQQSANWPPTFGGGTKVEIK
13 | 42.6 nM | BIIB-12-1291 (antibody, V domains shown) VH: QVQLVQSGAEVKKPGASVKVSCKASGYTFTSYYMHWVRQAPGQGLEWMGIINPSGGSTSYAQKFQGRVTMTRDTSTSTVYMELSSLRSEDTAVYYCARSRRMWVGYFDLWGRGTLVTVSS VL: EIVLTQSPATLSLSPGERATLSCRASQSVSSYLAWYQQKPGQAPRLLIYDASNRATGIPARFSGSGSGTDFTLTISSLEPEDFAVYYCQQRLNLPLTFGGGTKVEIK
14 | 56 nM | BIIB-12-930 (antibody, V domains shown) VH: QVQLVQSGAEVKKPGASVKVSCKASGYTFTSYYMHWVRQAPGQGLEWMGIINPSGGSTSYAQKFQGRVTMTRDTSTSTVYMELSSLRSEDTAVYYCARVRQKATLLFQHWGQGTLVTVSS VL: not shown
15 | 26.6 nM | BIIB-12-927 (antibody, V domains shown) VH: QVQLVQSGAEVKKPGASVKVSCKASGYTFTSYYMSWVRQAPGQGLEWMGIINPSGGSTSYAQKFQGRVTMTRDTSTSTVYMELSSLRSEDTAVYYCARDSGRKRYYYMDVWGKGTTVTVSS VL: EIVMTQSPATLSVSPGERATLSCRASQSVSSNLAWYQQKPGQAPRLLIYGASTRATGIPARFSGSGSGTEFTLTISSLQSEDFAVYYCQQFNLWPFTFGGGTKVEIK
16 | 85.6 nM | BIIB-12-1288 (antibody, V domains shown) VH: QVQLVQSGAEVKKPGASVKVSCKASGYTFTSYYMHWVRQAPGQGLEWMGIINPSGGSTSYAQKFQGRVTMTRDTSTSTVYMELSSLRSEDTAVYYCARGGANDYGSSSRWWYFDLWGRGTLVTVSS VL: not shown
17 | 18.5 nM | BIIB-12-898 (antibody, V domains shown) VH: QVQLVQSGAEVKKPGASVKVSCKASGYTFTSYYMHWVRQAPGQGLEWMGIINPSGGSTTYAQKFQGRVTMTRDTSTSTVYMELSSLRSEDTAVYYCARGDRMLRAFDPWGQGTLVTVSS VL: DIQLTQSPSTLSASVGDRVTITCRASQAISSWLAWYQQKPGKAPKLLIYDASSLESGVPSRFSGSGSGTEFTLTISSLQPDDFATYYCQQVNRFPFTFGGGTKVEIK
18 | 25.8 nM | BIIB-12-900 (antibody, V domains shown) VH: QVQLVQSGAEVKKPGASVKVSCKASGYTFTSYYMHWVRQAPGQGLEWMGIINPGGGSTSYAQKFQGRVTMTRDTSTSTVYMELSSLRSEDTAVYYCARSGGMYDRELGMDVWGQGTTVTVSS VL: not shown
19 | 38.6 nM | BIIB-12-922 (antibody, V domains shown) VH: QVQLVQSGAEVKKPGASVKVSCKASGYTFTSYYMHWVRQAPGQGLEWMGIINPSGGSTSYAQKFQGRVTMTRDTSTSTVYMELSSLRSEDTAVYYCARRGRIAGMWGQGTTVTVSS VL: not shown
20 | 56.8 nM | BIIB-12-1330 (antibody, V domains shown) VH: QVQLVESGGGVVQPGRSLRLSCAASGFTFSSYGMHWVRQAPGKGLEWVAVISYDGSNKYYADSVKGRFTISRDNSKNTLYLQMNSLRAEDTAVYYCAKGGSARWINIWGQGTTVTVSS VL: not shown
21 | 27.7 nM | BIIB-12-918 (antibody, V domains shown) VH: QVQLVESGGGVVQPGRSLRLSCAASGFTFSSYGMHWVRQAPGKGLEWVAVISYDGSNKYYADSVKGRFTISRDNSKNTLYLQMNSLRAEDTAVYYCAKSLGGRSFDIWGQGTMVTVSS VL: DIQMTQSPSSLSASVGDRVTITCRASQSISRYLNWYQQKPGKAPKLLIYAASSLQSGVPSRFSGSGSGTDFTLTISSLQPEDFATYYCQQIFSLPITFGGGTKVEIK
22 | 50.5 nM | BIIB-12-1304 (antibody, V domains shown) VH: QVQLVESGGGVVQPGRSLRLSCAASGFTFSSYGMHWVRQAPGKGLEWVAVISYDGSNKYYADSVKGRFTISRDNSKNTLYLQMNSLRAEDTAVYYCAKGPGSRRFDIWGQGTMVTVSS VL: EIVMTQSPATLSVSPGERATLSCRASQSVSSNLAWYQQKPGQAPRLLIYGASTRATGIPARFSGSGSGTEFTLTISSLQSEDFAVYYCQQANVLPLTFGGGTKVEIK
23 | 31.1 nM | BIIB-12-912 (antibody, V domains shown) VH: QVQLVESGGGVVQPGRSLRLSCAASGFTFSSYGMHWVRQAPGKGLEWVAVISYDGSNKYYADSVKGRFTISRDNSKNTLYLQMNSLRAEDTAVYYCAKSGGRYGYDIWGQGTMVTVSS VL: EIVMTQSPATLSVSPGERATLSCRASQSVSSNLAWYQQKPGQAPRLLIYGASTRATGIPARFSGSGSGTEFTLTISSLQSEDFAVYYCQQFHNFPPTFGGGTKVEIK

Source: US20230192896A1 (published 2023)
